3 molecules from publication PMC5088048 (Structure (London, England : 1993), 2016) can be followed below.

The chains are these.
T1: RING1B, full-length (UniProt Q99496 1-336)
T1 sequence (looked up): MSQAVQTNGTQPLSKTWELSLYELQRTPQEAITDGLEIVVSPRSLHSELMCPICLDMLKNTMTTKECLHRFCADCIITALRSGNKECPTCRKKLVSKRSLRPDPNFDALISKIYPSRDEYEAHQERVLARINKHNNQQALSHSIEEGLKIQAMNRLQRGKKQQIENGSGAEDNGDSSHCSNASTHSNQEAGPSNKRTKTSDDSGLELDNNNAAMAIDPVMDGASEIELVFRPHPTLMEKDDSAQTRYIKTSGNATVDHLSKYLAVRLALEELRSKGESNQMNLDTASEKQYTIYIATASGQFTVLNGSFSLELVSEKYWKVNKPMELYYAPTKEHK

B1: PCGF1 35–255 (RING finger and RAWUL domains) (domain or fragment, UniProt Q9BSM1 35-255, looked up)
chain: RVKIKDLNEHIVCCLCAGYFVDATTITECLHTFCKSCIVKYLQTSKYCPMCNIKIHETQPLLNLKLDRVMQDIVYKLVPGLQDSEEKRIREFYQSRGLDRVTQPTGEEPALSNLGLPFSSFDHSKAHYYRYDEQLNLCLERLSSGKDKNKSVLQNKYVRCSVRAEVRHLRRVLCHRLMLNPQHVQLLFDNEVLPDHMTMKQIWLSRWFGKPSPLLLQYSVK
B2: BCORL1 PUFD (1594–1711) (domain or fragment)
chain: METRDDFMFELSDKPLLPCYNLQVSVSRGPCNWFLFSDVLKRLKLSSRIFQARFPHFEITTMPKAEFYRQVASSQLLTPAERPGGLDDRSPPGSSETVELVRYEPDLLRLLGSEVEFQSCNS
B3: PCGF1 150–255/BCORL1 PUFD dimer (complex)
chain 1: LPFSSFDHSKAHYYRYDEQLNLCLERLSSGKDKNKSVLQNKYVRCSVRAEVRHLRRVLCHRLMLNPQHVQLLFDNEVLPDHMTMKQIWLSRWFGKPSPLLLQYSVK
chain 2: B2 chain

The target of one assay is T1, RING1B, full-length. Briefly: AUC.
Assay [1] has as its target B1. Briefly: AUC.
For assay [2], the target named is KDM2B 1059–1336/SKP1 heterodimer (UniProt Q8NHM5 1059-1336; P63208 2-163). Briefly: ITC.
Chain of KDM2B 1059–1336/SKP1 heterodimer (Q8NHM5 1059-1336, chain 1 of 2): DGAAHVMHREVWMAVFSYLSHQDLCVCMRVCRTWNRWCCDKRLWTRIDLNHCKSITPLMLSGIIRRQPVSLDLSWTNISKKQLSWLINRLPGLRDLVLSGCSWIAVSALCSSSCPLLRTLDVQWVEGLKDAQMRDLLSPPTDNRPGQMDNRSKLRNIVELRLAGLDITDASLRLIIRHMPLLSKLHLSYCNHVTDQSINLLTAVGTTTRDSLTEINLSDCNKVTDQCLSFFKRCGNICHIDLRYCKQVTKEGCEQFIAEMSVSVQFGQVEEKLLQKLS
Chain of KDM2B 1059–1336/SKP1 heterodimer (P63208 2-163, chain 2 of 2): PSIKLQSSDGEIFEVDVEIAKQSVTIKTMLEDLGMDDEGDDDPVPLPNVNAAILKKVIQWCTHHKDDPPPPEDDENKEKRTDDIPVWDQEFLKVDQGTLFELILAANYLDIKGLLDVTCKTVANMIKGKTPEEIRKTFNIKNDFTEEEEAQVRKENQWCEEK

Turning to B1, the “stoichiometry N” value in the assay with RING1B, full-length stood at 1. Consider B2, for which the “stoichiometry N” value with RING1B, full-length came to 1; in assay [1], 1.

In turn, B3 gave a Kd in assay [2] of 2.8 µM.

A word on the stoichiometry N: it is the number of molecules, sites or subunits per partner or assembly. As a reminder, the Kd is the equilibrium constant for the complex coming apart. Low values mean higher affinity, high ones lower affinity.
